From patent US11203743B2, “Method for producing long-chain glycosylated genistein” (Jiangnan University, priority 2019, dated 2021)

Assays:
[1] = relative to genistein; cited from earlier work
[2] = Effect of reaction pH on the yield of long-chain glycosylated genistein; format: biochemical
Procedure: On the basis of Example 2, the mutant A156V/L174P/A166Y with the highest specificity to long-chain glycosylated genistein products was selected, the reaction temperature was controlled to be 50° C., and the reaction pH was changed into 4, 5, 6, 7 and 8 separately.
(§1) With reference to Example 2, the molar content of short-chain glycosylated genistein (here the short-chain glycosylated genistein was a mixture of monoglycosylated genistein, diglycosylated genistein and triglycosylated genistein) and long-chain glycosylated genistein (here the long-chain glycosylated genistein was a mixture of tetraglycosylated genistein, pentaglycosylated genistein and hexaglycosylated genistein) in a reaction solution was detected by HPLC, the ratio (%) of the molar content of short-chain glycosylated genistein and long-chain glycosylated genistein in the reaction solution to the molar content of total glycosylated genistein in the reaction solution and the content (g/L) of short-chain glycosylated genistein and long-chain glycosylated genistein in the reaction solution were calculated, and detection results were shown in Table 5 and FIG. 2.

[3] = Effect of reaction temperature on the yield of long-chain glycosylated genistein; format: biochemical
Procedure: On the basis of Example 2, the mutant A156V/L174P/A166Y with the highest specificity to long-chain glycosylated genistein products was selected, and the reaction temperature was changed into 30° C., 35° C., 40° C., 45° C., 50° C., 55° C. and 60° C. separately.
as §1, with “4” for “5”, “1.” for “2.”

[4] = Specificity of different cyclodextrin glucosyltransferases to glycosylated genistein products (maltodextrin donor, genistein receptor, HPLC); format: biochemical
Procedure: Genistein (purchased from Sigma) was dissolved in dimethyl sulfoxide (DMSO) to prepare a genistein solution with a final concentration of 7.5 g/L; maltodextrin (purchased from Shanghai Sangon Biotech Co., Ltd.) was dissolved in a PBS buffer (50 mM, pH 6.5) to prepare a maltodextrin solution with a final concentration of 40 g/L; the freeze-fried pure enzymes of the mutants A156V/L174P, A156V/L174P/166Y, A156V/L174P/A166V, A156V/L174P/A166G, A156V/L174P/A166K, A156S, A156L and L174M obtained in Example 1 were dissolved in a PBS buffer (50 mM, pH 6.5) separately to prepare a CGTase enzyme solution with a final concentration of 15 U/L; 300 μL of the genistein solution, 500 μL of the maltodextrin solution and 200 μL of the CGTase enzyme solution were taken separately, mixed in a 2 mL vial with a lid and placed in a shaker for slow shaking at 40° C. and 120 rpm for 20-24 hours to obtain a reaction solution.
The molar content of short-chain glycosylated genistein (here the short-chain glycosylated genistein was a mixture of monoglycosylated genistein, diglycosylated genistein and triglycosylated genistein) and long-chain glycosylated genistein (here the long-chain glycosylated genistein was a mixture of tetraglycosylated genistein, pentaglycosylated genistein and hexaglycosylated genistein) in the reaction solution was detected by HPLC, the ratio (%) of the molar content of short-chain glycosylated genistein and long-chain glycosylated genistein in the reaction solution to the molar content of total glycosylated genistein in the reaction solution and the content (g/L) of short-chain glycosylated genistein and long-chain glycosylated genistein in the reaction solution were calculated, and detection results were shown in Tables 1 to 2. A method for detecting the ratio (%) of the content of short-chain glycosylated genistein and long-chain glycosylated genistein in the reaction solution to the content of total glycosylated genistein in the reaction solution by HPLC included that the reaction solution was filtered through a 0.22 μm filter membrane, and an Amethyst C18-H column (4.6*250 mm, Sepax, America) was used for detection (see Table 3 for specific detection conditions). The content of long-chain glycosylated genistein=the molar content of hexaglycosylated genistein*the molecular weight of hexaglycosylated genistein+ the molar content of pentaglycosylated genistein*the molecular weight of pentaglycosylated genistein+ the molar content of tetraglycosylated genistein*the molecular weight of tetraglycosylated genistein, and the content of short-chain glycosylated genistein=the molar content of triglycosylated genistein*the molecular weight of triglycosylated genistein+ the molar content of diglycosylated genistein*the molecular weight of diglycosylated genistein+ the molar content of monoglycosylated genistein*the molecular weight of monoglycosylated genistein.

[5] = 40° C., pH 6.5, 120 rpm, 20-24 hours

genistein triglucoside
solubility in water, times higher than that of genistein [1]: 44,000 times

genistein diglucoside
solubility in water, times higher than that of genistein [1]: 3,700 times

B1: A156V/L174P/A166Y: cyclodextrin glucosyltransferase mutant: A156V, L174P and alanine 166 into tyrosine of SEQ ID NO: 1 (protein)
chain: SPDTSVDNKVNFSTDVIYQIVTDRFADGDRTNNPAGDAFSGDRSNLKLYFGGDWQGIIDKINDGYLTGMGVTALWISQPVENITSVIKYSGVNNTSYHGYWARDFKQTNDAFGDFADFQNLIDTAHAHNIKVVIDFAPNHTSPADRDNPGFAENGVLYDNGSLLGYYSNDTAGPFHHNGGTDFSTIEDGIYKNLYDLADINHNNNAMDAYFKSAIDLWLGMGVDGIRFDAVKHMPFGWQKSFVSSIYGGDHPVFTFGEWYLGADQTDGDNIKFANESGMNLLDFEYAQEVREVFRDKTETMKDLYEVLASTESQYDYINNMVTFIDNHDMDRFQVAGSGTRATEQALALTLTSRGVPAIYYGTEQYMTGDGDPNNRAMMTSFNTGTTAYKVIQALAPLRKSNPAIAYGTTTERWVNNDVLIIERKFGSSAALVAINRNSSAAYPISGLLSSLPAGTYSDVLNGLLNGNSITVGSGGAVTNFTLAAGGTAVWQYTAPETSPAIGNVGPTMGQPGNIVTIDGRGFGGTAGTVYFGTTAVTGSGIVSWEDTQIKAVIPKVAAGKTGVSVKTSSGTASNTFKSFNVLTGDQVTVRFLVNQANTNYGTNVYLVGNAAELGSWDPNKAIGPMYNQVIAKYPSWYYDVSVPAGTKLDFKFIKKGGGTVTWEGGGNHTYTTPASGVGTVTVDWQN
modifications: Translated from synthetic DNA
ratio of the molar content of long-chain glycosylated genistein to the molar content of total glycosylated genistein in the reaction solution ([2]; FIG. 2, pH 4 (highest)): 70% | increase of the ratio of long-chain to total glycosylated genistein in comparison with pH 6.5 ([2]; FIG. 2, pH 4 versus pH 6.5): 30% | content of long-chain glycosylated genistein in the reaction solution ([2]; pH 4, 50° C.): 10.2 g/L | content of short-chain glycosylated genistein in the reaction solution ([2]; pH 4, 50° C.): 2.6 g/L | yield of long-chain glycosylated genistein ([2]; pH 4 or 8 (highest), 50° C.): 10.2 to 10.3 g/L | increase of the yield of long-chain glycosylated genistein in comparison with pH 6.5 ([2]; pH 4 or 8 versus pH 6.5): 20% | content of long-chain glycosylated genistein in the reaction solution ([2]; pH 5, 50° C.): 7.2 g/L | content of short-chain glycosylated genistein in the reaction solution ([2]; pH 5, 50° C.): 8.8 g/L | content of long-chain glycosylated genistein in the reaction solution ([2]; pH 6, 50° C.): 8.5 g/L | content of short-chain glycosylated genistein in the reaction solution ([2]; pH 6, 50° C.): 8.0 g/L | content of long-chain glycosylated genistein in the reaction solution ([2]; pH 7, 50° C.): 9.7 g/L | content of short-chain glycosylated genistein in the reaction solution ([2]; pH 7, 50° C.): 5.5 g/L | content of long-chain glycosylated genistein in the reaction solution ([2]; pH 8, 50° C.): 10.3 g/L | content of short-chain glycosylated genistein in the reaction solution ([2]; pH 8, 50° C.): 3.6 g/L | content of long-chain glycosylated genistein in the reaction solution ([3]; 30° C.): 6.8 g/L | content of short-chain glycosylated genistein in the reaction solution ([3]; 30° C.): 8.9 g/L | content of long-chain glycosylated genistein in the reaction solution ([3]; 35° C.): 7.6 g/L | content of short-chain glycosylated genistein in the reaction solution ([3]; 35° C.): 8.5 g/L | content of long-chain glycosylated genistein in the reaction solution ([3]; 40° C.): 8.4 g/L | content of short-chain glycosylated genistein in the reaction solution ([3]; 40° C.): 8.0 g/L | increase of the yield of long-chain glycosylated genistein in comparison with 40° C. ([3]; 45-50° C. versus 40° C.): 21.4-23.8% | content of long-chain glycosylated genistein in the reaction solution ([3]; 45° C.): 10.1 g/L | content of short-chain glycosylated genistein in the reaction solution ([3]; 45° C.): 6.8 g/L | content of long-chain glycosylated genistein in the reaction solution ([3]; 50° C.): 10.0 g/L | content of short-chain glycosylated genistein in the reaction solution ([3]; 50° C.): 6.6 g/L | content of long-chain glycosylated genistein in the reaction solution ([3]; 55° C.): 8.9 g/L | content of short-chain glycosylated genistein in the reaction solution ([3]; 55° C.): 5.6 g/L | content of long-chain glycosylated genistein in the reaction solution ([3]; 60° C.): 5.7 g/L | content of short-chain glycosylated genistein in the reaction solution ([3]; 60° C.): 3.6 g/L | ratio of the molar content of long-chain glycosylated genistein to the molar content of total glycosylated genistein in the reaction solution ([3]; FIG. 1, highest value reached with rising temperature): 49% | increase of the ratio of long-chain to total glycosylated genistein in comparison with 40° C. ([3]; FIG. 1, versus 40° C.): 21% | yield of long-chain glycosylated genistein ([3]; temperature 45-50° C. (highest)): 10.2 to 10.4 g/L | content of long-chain glycosylated genistein in the reaction solution [4, 5]: 8.5 g/L | content of short-chain glycosylated genistein in the reaction solution [4, 5]: 8.0 g/L | ratio of the molar content of long-chain glycosylated genistein to the molar content of total glycosylated genistein in the reaction solution [4, 5]: 40% | ratio of the molar content of short-chain glycosylated genistein to the molar content of total glycosylated genistein in the reaction solution [4, 5]: 60% | specificity to long-chain glycosylated genistein products in comparison with wild type ([4]; in words, from Tables 1 to 2): significantly improved | increase of the yield of long-chain glycosylated genistein compared with wild-type cyclodextrin glucosyltransferase ([4]; versus wild type): 165%
